Test results taken from patent US20040049009A1, “Methods for improving the antagonistic/agonistic properties of peptidic antagonists/agonists of the corticotropin-releasing factor receptor (crfr)” (priority 2000, published 2004).

Experiments:
[1] = target: mouse CRF receptor, type 2β (mouse) (UniProt Q60748); test: SPA competition with 0.05 nM [125I-Tyr0]Svg, HEK-293 membranes; 95% CI (110-300)
[2] = target: rat CRF receptor, type 1 (rat) (UniProt P35353); test: SPA competition with 0.05 nM [125I-Tyr0]h/rCRF, HEK-293 membranes; 95% CI (0.65-1.4)
Target sequence in this assay (P35353 24-415): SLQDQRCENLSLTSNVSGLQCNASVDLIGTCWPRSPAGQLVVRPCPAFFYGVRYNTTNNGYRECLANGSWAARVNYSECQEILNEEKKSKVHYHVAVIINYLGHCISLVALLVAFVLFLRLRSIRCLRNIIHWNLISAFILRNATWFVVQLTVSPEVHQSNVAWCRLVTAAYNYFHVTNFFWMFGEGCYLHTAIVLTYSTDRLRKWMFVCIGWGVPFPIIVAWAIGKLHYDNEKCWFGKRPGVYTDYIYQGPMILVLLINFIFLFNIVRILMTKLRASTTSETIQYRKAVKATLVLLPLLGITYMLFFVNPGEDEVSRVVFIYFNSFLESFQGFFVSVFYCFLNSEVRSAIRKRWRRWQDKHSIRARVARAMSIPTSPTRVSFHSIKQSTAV

[3] = target: mouse CRF receptor, type 2β (mouse) (UniProt Q60748)
[4] = target: rat CRF receptor, type 1 (rat) (UniProt P35353)
[5] = target: T1, rat CRF binding protein C-terminally fused with a His6 sequence (rat) (UniProt P24388); test: SPA competition with 0.1 nM [125I-Tyr0]h/rCRF, His-tagged rCRFBP; 95% CI (0.9-1.0)
T1 sequence: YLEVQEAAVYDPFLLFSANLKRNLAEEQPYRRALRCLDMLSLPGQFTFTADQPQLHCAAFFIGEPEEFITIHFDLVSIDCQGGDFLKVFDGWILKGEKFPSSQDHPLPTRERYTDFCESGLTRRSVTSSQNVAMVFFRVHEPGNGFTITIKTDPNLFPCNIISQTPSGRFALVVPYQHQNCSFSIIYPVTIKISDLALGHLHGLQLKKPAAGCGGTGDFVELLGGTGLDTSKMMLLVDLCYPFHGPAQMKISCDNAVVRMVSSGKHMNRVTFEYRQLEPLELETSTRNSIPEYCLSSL

[6] = target: mouse CRF receptor, type 2β (mouse) (UniProt Q60748); test: SPA competition with 0.05 nM [125I-Tyr0]Svg, HEK-293 membranes; 95% CI (0.24-1.36)
[7] = target: T1, rat CRF binding protein C-terminally fused with a His6 sequence (rat); test: SPA competition with 0.1 nM [125I-Tyr0]h/rCRF, His-tagged rCRFBP; 95% CI (0.60-1.3)
[8] = target: T1, rat CRF binding protein C-terminally fused with a His6 sequence (rat); test: SPA competition with 0.1 nM [125I-Tyr0]h/rCRF, His-tagged rCRFBP; 95% CI (76-104)
[9] = target: mouse CRF receptor, type 2β (mouse) (UniProt Q60748); test: SPA competition with 0.05 nM [125I-Tyr0]Svg, HEK-293 membranes; 95% CI (15-18)
[10] = target: T1, rat CRF binding protein C-terminally fused with a His6 sequence (rat); test: SPA competition with 0.1 nM [125I-Tyr0]h/rCRF, His-tagged rCRFBP; 95% CI (70-90)
[11] = target: rat CRF receptor, type 1 (rat) (UniProt P35353); test: SPA competition with 0.05 nM [125I-Tyr0]h/rCRF, HEK-293 membranes; 95% CI (0.44-0.79)

Chain of ovine corticotropin-releasing factor (ligand) (P01142 148-188): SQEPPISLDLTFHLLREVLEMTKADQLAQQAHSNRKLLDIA

| Substance | Rel. intrinsic activity [%] [3] [%] | Rel. potency of antagonist [%] [3] [%] | Rel. intrinsic activity [%] [4] [%] | Rel. potency of antagonist [%] [4] [%] | other results |
| --- | --- | --- | --- | --- | --- |
| ovine corticotropin-releasing factor (ligand) |  |  |  |  | IC50 [1]: 200 nM; IC50 [2]: 1 nM |
| anti-sauvagine-30 (peptide) | 1 | 99 | 6.5 | 2 | IC50 [6]: 0.3 nM |
| [Ala^21]Svg (from UniProt P01144) (peptide) |  |  |  |  | IC50 [7]: 0.94 nM |
| [Glu^22]h/rCRF (from UniProt P06850) (peptide) |  |  |  |  | IC50 [9]: 16 nM; IC50 [10]: 80 nM; IC50 [11]: 0.61 nM |

Further lines, with some results ahead:

| Rel. intrinsic activity [%] [3] [%] | Rel. potency of antagonist [%] [3] [%] | Rel. intrinsic activity [%] [4] [%] | Rel. potency of antagonist [%] [4] [%] | Substance | other results |
| --- | --- | --- | --- | --- | --- |
| 1 | 97 |  |  | [Glu^11,16]Ast (peptide) |  |
| 1.4 | 97 | 19 | 14 | α-helical CRF^9-41 (peptide) | IC50 [5]: 1 nM |
| 1.1 | 99 | 9.8 | 86 | astressin (peptide) | IC50 [8]: 90 nM |
